{
  "source": "paper PMC2195830",
  "molecular_target": "phospholipase C (PLC)-γ2 (chicken (endogenous in DT40))",
  "experiment": "co-IP",
  "data": [
    {"binder": "phosphorylated B cell linker protein (BLNK), from BCR-stimulated DT40 cells (natural protein, phosphotyrosine (sites not defined in the paper)) MDKLNKLAVPAGEKFRKLQKMVHDIKKNESGIINKFKKFQNEQVALICKTGKDTWDRLKKKPPPSLPRRDYASEHADNEEEQWSDDFDSDYENPDGHSDSEMYVVPSEENPDDSYEPPPSEQEKKKIPSSFPISRGEYADNRTSHHQLPPINKPLPSTPSSALPRPKKPSLPSPAAKPKLPLKPRECSDDEDNYIVPVDNDDDNYIEPTESSTPPPAKPPVNRFMKPPAKSALPTPPKPSLASDMQEVYEVPEEEEELSPPPVTRFTKPLPATRAQNAEHSHMHSMTRESPKLDASRNILPLPRNRLHPKTDHEANNNDENHSFSNTQESKFPPGAAPSPLPRALKKTSNAVNPAKPCLPSRDTFTVNEDKPTAADRRRGSSHEFPLPPLPSGTPKSSLQKPLVLPKVPEAPSRALGTSPHSSISSISSTADQDAGVHSKAWYAATCDRKTAEDALYRSNKDGSFLIRKSSGQDSRQPYTLVVFYNRRVYNIPIRFIESTRQYALGREKCGEERFDSVAEIVENHQHTSLVLIDSQNNTKDSTKLKYIVRVS", "values": [
      {"measurement": "fold increase of the association in Cbl-deficient against wild-type DT40 cells", "value": 3, "unit": "fold"}
    ]}
  ]
}
